Experimental data: US20140220634A1 (Janssen / Centocor, published 2014)
Positions count from the first letter of the chain named.

B1: Fab323-G1 (Fab, V domains shown)
VH: EVQLLESGGGLVQPGGSLRLSCAASGFTFSDYWMSWVRQAPGKGLEWVSGIWGSGSSTYYADSVKGRFTISRDNSKNTLYLQMNSLRAEDTAVYYCAKHWGRGGDLDYWGQGTLVTVSS
VL: EIVLTQSPATLSLSPGERATLSCRASQSVSSYLAWYQQKPGQAPRLLIYDASNRATGIPARFSGSGSGTDFTLTISSLEPEDFAVYYCQQRSNWPLTFGQGTKVEIK
notes: Human Fab from a pIX phage library, made in E. coli; kappa light chain (germline L6 scaffold); also called CNTO 3631
B2: Fab169-31 (Fab, V domains shown)
VH: QVQLVQSGAEVKKPGSSVKVSCKASGGTFSSYAISWVRQAPGQGLEWMGGIIPIFGTANYAQKFQGRVTITADESTSTAYMELSSLRSEDTAVYYCARHLYYMLDYWGQGTLVTVSS
VL: B1 VL with S30A, S31D, Y32W, R91Y, S92D, N93G, L96I
notes: Human Fab from a pIX phage library, made in E. coli; kappa light chain; also called CNTO 4093
B3: Fab551-3 (Fab, V domains shown)
VH: EVQLVQSGAEVKKPGESLKISCKGSGYSFTSYWIGWVRQMPGKGLEWMGIIYPGDSDTRYSPSFQGQVTISADKSISTAYLQWSSLKASDTAMYYCARGLFWFFDYWGQGTLVTVSS
VL: B1 VL with S30D, Y32W, R91F, S92D, N93T, L96I
notes: Human Fab from a pIX phage library, made in E. coli; kappa light chain
B4: Fab169-C2 (Fab, V domains shown)
VH: QVQLVQSGAEVKKPGSSVKVSCKASGGTFSSYAISWVRQAPGQGLEWMGGIIPIFGTANYAQKFQGRVTITADESTSTAYMELSSLRSEDTAVYYCARHWRLNYWGQGTLVTVSS
VL: B1 VL
notes: Human Fab from a pIX phage library, made in E. coli; kappa light chain (germline L6 scaffold); also called VH169-C2/VLL6
B5: Fab169-64 (Fab, V domains shown)
VH: QVQLVQSGAEVKKPGSSVKVSCKASGGTFSSYAISWVRQAPGQGLEWMGGIIPIFGTANYAQKFQGRVTITADESTSTAYMELSSLRSEDTAVYYCARNIVGDYLLDYWGQGTLVTVSS
VL: B1 VL with S30D, S31D, Y32W, R91G, S92D, N93T, W94A, L96I
notes: Human Fab from a pIX phage library, made in E. coli; kappa light chain; also called VH169-64/VL169-64
B6: Fab 169-76 (Fab, V domains shown)
VH: QVQLVQSGAEVKKPGSSVKVSCKASGGTFSSYGISWVRQAPGQGLEWMGGIIPYFGTANYAQKFQGRVTITADESTSTAYMELSSLRSEDTAVYYCARPTNVLDYWGQGTLVTVSS
VL: B1 VL with S30R, S31K, Y32F, R91S, S92N, L96F
notes: Human Fab from a pIX phage library, made in E. coli; kappa light chain (detected with anti-kappa-HRP); also called VH169-76/VL169-76
B7: Fab323-G9 (Fab, V domains shown)
VH: EVQLLESGGGLVQPGGSLRLSCAASGFTFSSYWMHWVRQAPGKGLEWVSAISGSGGSTYYADSVKGRFTISRDNSKNTLYLQMNSLRAEDTAVYYCAKYLRWGSYGILDYWGQGTLVTVSS
VL: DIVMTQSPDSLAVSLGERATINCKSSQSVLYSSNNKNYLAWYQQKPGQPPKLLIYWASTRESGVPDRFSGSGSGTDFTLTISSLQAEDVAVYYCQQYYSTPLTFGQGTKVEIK
notes: Human Fab from a pIX phage library, made in E. coli; kappa light chain (germline B3 scaffold); also called VH323-G9/VLB3
B8: Fab323-B3 (Fab, V domains shown)
VH: EVQLLESGGGLVQPGGSLRLSCAASGFTFSSYAMSWVRQAPGKGLEWVSAIRYDGSSKYYADSVKGRFTISRDNSKNTLYLQMNSLRAEDTAVYYCAKNLKILDYWGQGTLVTVSS
VL: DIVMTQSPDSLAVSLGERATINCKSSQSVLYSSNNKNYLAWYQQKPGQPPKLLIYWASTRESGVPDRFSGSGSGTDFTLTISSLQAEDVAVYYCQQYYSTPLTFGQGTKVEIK
notes: Human Fab from a pIX phage library, made in E. coli; kappa light chain (germline B3 scaffold); also called VH323-B3/VLB3
B9: Fab169-G11 (Fab, V domains shown)
VH: QVQLVQSGAEVKKPGSSVKVSCKASGGTFSSYAISWVRQAPGQGLEWMGGIIPIFGTANYAQKFQGRVTITADESTSTAYMELSSLRSEDTAVYYCARDGYDIVLGIFDYWGQGTLVTVSS
VL: B1 VL
notes: Human Fab from a pIX phage library, made in E. coli; kappa light chain (germline L6 scaffold); also called VH169-G11/VLL6
B10: Fab169-47 (Fab, V domains shown)
VH: B6 VH with G33A, Y54I, P99T, T100S, N101P, V102S, L103F
VL: B1 VL with S30R, S31D, Y32F, D50Y, R91G, S92F, N93H, L96F
notes: Human Fab from a pIX phage library, made in E. coli; kappa light chain; also called VH169-47/VL169-47
B11: Fab169-34 (Fab, V domains shown)
VH: QVQLVQSGAEVKKPGSSVKVSCKASGGTFSSYAISWVRQAPGQGLEWMGGIIPIFGTANYAQKFQGRVTITADESTSTAYMELSSLRSEDTAVYYCAREGPASWDNWALDYWGQGTLVTVSS
VL: B1 VL with S31D, Y32W, D50Y, R91S, N93T, W94A, L96I
notes: Human Fab from a pIX phage library, made in E. coli; kappa light chain; also called VH169-34/VL169-34
B12: Fab169-45 (Fab, V domains shown)
VH: B6 VH with G33A, Y54I, P99R, T100L, N101G, V102L, L103F
VL: B1 VL with S30D, Y32A, R91Y, S92D, N93R
notes: Human Fab from a pIX phage library, made in E. coli; kappa light chain; also called VH169-45/VL169-45

Biological target: T1, human collagen II (human, UniProt P02458 182-1241)
T1 construct: Purified human collagen II (Chondrex #2015), isolated from cartilage; also called huColII; human type II collagen
Test: Biacore binding kinetics

Question: For B1, which Kd is on record?
Answer: Its Kd is 6 nM.

Question: For B2, which Kd is on record?
Answer: Its Kd is 50 nM.

Biological target: T2, rat collagen II (rat, UniProt P05539 114-1173)
T2 construct: Bought collagen preparation
Test: Biacore binding kinetics

Question: How did the Kd turn out when B1 was run?
Answer: The Kd was 5 nM.

Question: With B2 as the binder, how does the Kd read?
Answer: Its Kd is 75 nM.

Biological target: T3, human collagen I (human, UniProt P02452 162-1218; P08123 80-1119)
T3 construct: Bought collagen preparation
Test: ELISA, plate coated with 10 µg/ml human collagen I, anti-kappa-HRP, chemiluminescence
Method: (§1) Maxisorp ELISA plates (Nunc) were coated with 10 μg/ml human collagen I (Chondrex), human collagen II (Chondrex), rat collagen I (Chondrex), rat collagen II (Chondrex) or with 5 μg/ml human collagen IV (Chemicon) or human collagen V (Chemicon), or with anti-Fd (the Binding Site) at 1 μg/ml, all in PBS, according to manufacturer's instructions. The wells were washed three times in TBST and blocked for one hour with 200 μL 3% milk in TBST. 100 μL of the Fab lysate was added onto the wells of the coated ELISA plates, and incubated 1 hour at room temperature. The wells were washed three times followed by addition of 100 μL of anti-kappa-HRP (Southern Biotech) at 1:5000 in PBS. The plates were incubated at room temperature for one hour, washed three times with TBST, and developed with BM Chemiluminescence ELISA Substrate (Roche Applied Science). The clones that bound to human and rat collagen II without binding to human collagen I, IV or V, or rat collagen I were sequenced and unique clones were further characterized.

T3 sequence (P02452 162-1218, chain 1 of 2): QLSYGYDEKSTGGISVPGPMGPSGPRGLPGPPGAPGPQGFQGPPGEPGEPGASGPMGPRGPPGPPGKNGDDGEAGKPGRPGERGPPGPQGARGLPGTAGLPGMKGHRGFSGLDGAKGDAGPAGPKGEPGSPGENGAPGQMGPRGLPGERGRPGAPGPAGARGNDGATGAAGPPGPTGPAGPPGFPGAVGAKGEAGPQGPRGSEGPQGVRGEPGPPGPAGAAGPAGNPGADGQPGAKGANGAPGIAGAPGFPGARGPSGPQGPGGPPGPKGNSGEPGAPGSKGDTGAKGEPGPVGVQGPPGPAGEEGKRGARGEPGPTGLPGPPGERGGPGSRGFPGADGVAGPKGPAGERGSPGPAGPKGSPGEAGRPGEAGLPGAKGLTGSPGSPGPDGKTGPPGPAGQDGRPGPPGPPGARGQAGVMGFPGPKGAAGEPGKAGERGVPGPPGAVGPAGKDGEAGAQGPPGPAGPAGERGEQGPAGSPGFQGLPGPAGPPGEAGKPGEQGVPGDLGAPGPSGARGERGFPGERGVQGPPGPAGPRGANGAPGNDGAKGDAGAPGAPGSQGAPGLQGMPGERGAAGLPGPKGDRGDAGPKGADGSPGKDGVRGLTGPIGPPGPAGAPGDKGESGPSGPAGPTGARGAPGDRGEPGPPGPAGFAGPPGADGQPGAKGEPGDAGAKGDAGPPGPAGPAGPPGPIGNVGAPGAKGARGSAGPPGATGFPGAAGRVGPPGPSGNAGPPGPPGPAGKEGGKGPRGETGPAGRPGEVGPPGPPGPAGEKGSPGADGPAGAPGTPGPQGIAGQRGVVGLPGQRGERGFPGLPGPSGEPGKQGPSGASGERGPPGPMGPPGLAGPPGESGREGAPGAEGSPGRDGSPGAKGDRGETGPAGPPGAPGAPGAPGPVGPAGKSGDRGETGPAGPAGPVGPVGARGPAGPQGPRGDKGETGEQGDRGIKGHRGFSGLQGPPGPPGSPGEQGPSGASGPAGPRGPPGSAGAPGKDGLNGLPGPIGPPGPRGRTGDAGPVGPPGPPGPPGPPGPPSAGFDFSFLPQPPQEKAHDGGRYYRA
T3 sequence (P08123 80-1119, chain 2 of 2): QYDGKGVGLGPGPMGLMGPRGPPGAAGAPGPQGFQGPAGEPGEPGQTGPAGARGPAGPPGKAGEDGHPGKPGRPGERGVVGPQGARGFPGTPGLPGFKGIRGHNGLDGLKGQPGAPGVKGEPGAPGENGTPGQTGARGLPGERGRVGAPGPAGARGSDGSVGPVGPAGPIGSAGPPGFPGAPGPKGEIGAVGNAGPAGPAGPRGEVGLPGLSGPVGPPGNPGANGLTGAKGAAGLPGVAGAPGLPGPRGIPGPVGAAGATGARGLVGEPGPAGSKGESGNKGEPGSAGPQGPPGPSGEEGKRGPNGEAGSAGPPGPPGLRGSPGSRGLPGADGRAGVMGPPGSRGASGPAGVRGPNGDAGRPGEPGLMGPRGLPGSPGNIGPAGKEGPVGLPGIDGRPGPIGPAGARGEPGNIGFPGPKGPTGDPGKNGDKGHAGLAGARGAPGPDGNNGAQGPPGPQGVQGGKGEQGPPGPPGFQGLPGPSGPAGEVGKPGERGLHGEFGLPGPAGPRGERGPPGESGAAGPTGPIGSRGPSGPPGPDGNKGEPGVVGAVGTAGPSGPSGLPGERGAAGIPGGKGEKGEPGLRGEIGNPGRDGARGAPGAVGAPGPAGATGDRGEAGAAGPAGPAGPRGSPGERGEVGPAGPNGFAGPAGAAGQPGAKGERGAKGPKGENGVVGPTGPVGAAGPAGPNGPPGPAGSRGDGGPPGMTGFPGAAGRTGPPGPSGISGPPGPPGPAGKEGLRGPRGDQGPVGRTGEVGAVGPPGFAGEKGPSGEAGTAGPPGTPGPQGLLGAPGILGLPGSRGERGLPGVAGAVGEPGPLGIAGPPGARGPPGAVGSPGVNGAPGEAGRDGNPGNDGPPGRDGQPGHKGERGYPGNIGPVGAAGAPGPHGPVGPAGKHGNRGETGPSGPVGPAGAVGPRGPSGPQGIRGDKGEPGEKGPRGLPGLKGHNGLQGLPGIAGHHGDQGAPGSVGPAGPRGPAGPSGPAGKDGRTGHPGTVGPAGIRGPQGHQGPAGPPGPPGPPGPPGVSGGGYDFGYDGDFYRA

Question: Does B3 bind?
Answer: Result: no binding (tested: not given (100 µL Fab lysate))

Question: Does B2 bind?
Answer: Result: no binding (tested: not given (100 µL Fab lysate))

Question: Does B4 bind?
Answer: Result: no binding (tested: not given (100 µL Fab lysate))

Question: Does B5 bind?
Answer: Result: no binding (tested: not given (100 µL Fab lysate))

Question: Does B6 bind?
Answer: Result: no binding (tested: not given (100 µL Fab lysate))

Question: Does B7 bind?
Answer: Result: no binding (tested: not given (100 µL Fab lysate))

Question: Does B8 bind?
Answer: Result: no binding (tested: not given (100 µL Fab lysate))

Biological target: T4, rat collagen I (rat, UniProt P02454 152-1207; P02466 86-1125)
T4 construct: Bought collagen preparation
Test: ELISA, plate coated with 10 µg/ml rat collagen I, anti-kappa-HRP, chemiluminescence
Method: as §1

T4 sequence (P02454 152-1207, chain 1 of 2): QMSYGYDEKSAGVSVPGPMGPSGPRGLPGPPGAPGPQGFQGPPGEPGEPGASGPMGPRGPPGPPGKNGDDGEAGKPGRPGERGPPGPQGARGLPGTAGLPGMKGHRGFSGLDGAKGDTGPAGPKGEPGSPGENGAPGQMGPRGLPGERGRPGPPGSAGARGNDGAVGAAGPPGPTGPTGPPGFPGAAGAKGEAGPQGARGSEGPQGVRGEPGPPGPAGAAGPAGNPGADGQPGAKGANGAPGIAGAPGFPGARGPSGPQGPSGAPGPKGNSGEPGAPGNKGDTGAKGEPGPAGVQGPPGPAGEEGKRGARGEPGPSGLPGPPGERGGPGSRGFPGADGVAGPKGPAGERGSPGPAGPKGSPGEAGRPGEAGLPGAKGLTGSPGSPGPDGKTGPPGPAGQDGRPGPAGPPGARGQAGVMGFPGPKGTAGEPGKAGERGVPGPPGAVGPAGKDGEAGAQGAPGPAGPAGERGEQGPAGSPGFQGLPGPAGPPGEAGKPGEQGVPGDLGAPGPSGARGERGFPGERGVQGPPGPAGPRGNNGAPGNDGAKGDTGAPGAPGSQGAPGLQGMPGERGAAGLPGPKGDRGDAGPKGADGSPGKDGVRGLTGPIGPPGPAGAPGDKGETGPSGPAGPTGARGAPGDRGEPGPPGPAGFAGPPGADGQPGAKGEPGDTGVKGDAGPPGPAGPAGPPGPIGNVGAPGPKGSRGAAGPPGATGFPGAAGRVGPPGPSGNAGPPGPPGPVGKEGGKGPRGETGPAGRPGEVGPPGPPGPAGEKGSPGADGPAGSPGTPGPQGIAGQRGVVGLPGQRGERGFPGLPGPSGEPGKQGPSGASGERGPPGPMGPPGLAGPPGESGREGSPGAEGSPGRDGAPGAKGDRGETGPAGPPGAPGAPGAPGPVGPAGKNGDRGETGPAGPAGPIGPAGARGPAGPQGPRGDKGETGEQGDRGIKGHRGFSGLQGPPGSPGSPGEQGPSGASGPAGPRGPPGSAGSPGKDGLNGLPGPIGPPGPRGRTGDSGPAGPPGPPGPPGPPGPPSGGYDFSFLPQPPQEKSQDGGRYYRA
T4 sequence (P02466 86-1125, chain 2 of 2): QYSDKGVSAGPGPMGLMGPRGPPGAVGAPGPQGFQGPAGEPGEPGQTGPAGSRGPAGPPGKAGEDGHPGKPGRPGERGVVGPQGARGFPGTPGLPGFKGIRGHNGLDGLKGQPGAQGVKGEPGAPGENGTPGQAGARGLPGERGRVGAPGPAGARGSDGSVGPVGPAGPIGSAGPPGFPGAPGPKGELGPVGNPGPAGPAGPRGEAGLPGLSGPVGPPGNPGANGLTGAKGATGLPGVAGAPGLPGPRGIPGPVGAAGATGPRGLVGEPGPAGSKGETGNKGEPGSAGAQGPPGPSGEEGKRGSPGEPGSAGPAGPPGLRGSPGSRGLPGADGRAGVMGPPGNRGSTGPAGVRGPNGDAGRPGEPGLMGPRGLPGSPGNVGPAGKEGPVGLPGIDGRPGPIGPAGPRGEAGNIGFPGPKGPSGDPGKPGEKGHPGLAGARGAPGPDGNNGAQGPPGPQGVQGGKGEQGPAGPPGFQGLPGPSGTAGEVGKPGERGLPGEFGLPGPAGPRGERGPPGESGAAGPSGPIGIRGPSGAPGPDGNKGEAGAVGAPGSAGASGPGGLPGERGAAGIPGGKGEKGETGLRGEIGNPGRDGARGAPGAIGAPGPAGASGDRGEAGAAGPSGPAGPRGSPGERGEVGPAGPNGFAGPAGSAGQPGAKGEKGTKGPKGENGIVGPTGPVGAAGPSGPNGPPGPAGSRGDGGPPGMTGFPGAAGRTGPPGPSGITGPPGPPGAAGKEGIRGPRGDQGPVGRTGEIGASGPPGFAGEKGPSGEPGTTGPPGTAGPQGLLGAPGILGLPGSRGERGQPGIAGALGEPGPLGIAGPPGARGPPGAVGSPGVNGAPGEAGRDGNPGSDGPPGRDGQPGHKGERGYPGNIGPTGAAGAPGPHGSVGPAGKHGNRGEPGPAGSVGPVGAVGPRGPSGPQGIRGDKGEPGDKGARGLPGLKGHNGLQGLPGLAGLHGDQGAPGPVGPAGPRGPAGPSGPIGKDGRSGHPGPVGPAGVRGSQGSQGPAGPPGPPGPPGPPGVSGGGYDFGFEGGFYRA

Question: Does B3 bind?
Answer: Result: no binding (tested: not given (100 µL Fab lysate))

Question: Does B2 bind?
Answer: Result: no binding (tested: not given (100 µL Fab lysate))

Question: Does B9 bind?
Answer: Result: no binding (tested: not given (100 µL Fab lysate))

Question: Does B10 bind?
Answer: Result: no binding (tested: not given (100 µL Fab lysate))

Question: Does B4 bind?
Answer: Result: no binding (tested: not given (100 µL Fab lysate))

Question: Does B5 bind?
Answer: Result: no binding (tested: not given (100 µL Fab lysate))

Question: Does B6 bind?
Answer: Result: no binding (tested: not given (100 µL Fab lysate))

Question: Does B7 bind?
Answer: Result: no binding (tested: not given (100 µL Fab lysate))

Question: Does B8 bind?
Answer: Result: no binding (tested: not given (100 µL Fab lysate))

Biological target: T1, human collagen II
Test: ELISA, plate coated with 10 µg/ml human collagen II, 100 µL Fab lysate, anti-kappa-HRP, chemiluminescence
Method: as §1

Question: Does B11 bind?
Answer: Result: binds

Question: Does B9 bind?
Answer: Result: binds

Question: Does B10 bind?
Answer: Result: binds

Question: Does B4 bind?
Answer: Result: binds

Question: Does B5 bind?
Answer: Result: binds

Question: Does B12 bind?
Answer: Result: binds

Question: Does B6 bind?
Answer: Result: binds

Biological target: T2, rat collagen II
Test: ELISA, plate coated with 10 µg/ml rat collagen II, 100 µL Fab lysate, anti-kappa-HRP, chemiluminescence
Method: as §1

Question: Does B3 bind?
Answer: Result: binds

Question: Does B11 bind?
Answer: Result: binds

Question: Does B9 bind?
Answer: Result: binds

Question: Does B10 bind?
Answer: Result: binds

Question: Does B4 bind?
Answer: Result: binds

Question: Does B5 bind?
Answer: Result: binds

Question: Does B12 bind?
Answer: Result: binds

Question: Does B6 bind?
Answer: Result: binds

Biological target: T1, human collagen II
Test: ELISA, purified Fab 10 ng/ml-10 ug/ml on coated collagen II
Method: as §1
EC50 values were obtained for select Fabs using ELISA assay as described above. In the assays, 100 microliters of each Fab was added in a concentration range between 10 ng/ml-10 μg/ml onto the wells.

Question: For B3, which EC50 is on record?
Answer: Its EC50 is 0.114 µg/mL.

Question: With B1 as the binder, how does the EC50 read?
Answer: Its EC50 is 0.123 µg/mL.

Question: B2 was tested. Which EC50 did it give?
Answer: The EC50 was 0.113 µg/mL.
